Reference: patent US20050203007A1 (REGENTS OF THE UNIVERSITY OF MICHIGAN, published 2005)
Positions count from the first letter of the chain named. Each block holds one binder with its values, some of them ahead of it.

Legend:
secreted, soluble furin [1] = biological target: T1, secreted, soluble furin (human, UniProt P09958 108-715, limits assumed); assay: rapid inhibition assay; listed as potent inhibitor of furin
T1 construct: Secreted, soluble construct; also called human furin
Procedure: (§1) 5. Rapid protease inhibition assay. Novel eglin variants were diluted 50-fold and incubated with secreted, soluble furin (0.5 nM) for 15 min in 96-well plates. The furin substrate (Boc-Arg-Val-Arg-Arg-MCA) was added, and release of AMC was monitored continuously in a 96-well fluorescence plate reader for 20 min, as described under Example 1. […] The plasmid DNA encoding such eglin c variant inhibitors were isolated and sequenced.

secreted, soluble Kex2 [2] = biological target: T2, secreted, soluble Kex2 (Saccharomyces cerevisiae, UniProt P13134 114-613, limits assumed); assay: enzyme inhibition, purified variant
T2 construct: Secreted, soluble construct; also called kexin
T2 sequence (looked up): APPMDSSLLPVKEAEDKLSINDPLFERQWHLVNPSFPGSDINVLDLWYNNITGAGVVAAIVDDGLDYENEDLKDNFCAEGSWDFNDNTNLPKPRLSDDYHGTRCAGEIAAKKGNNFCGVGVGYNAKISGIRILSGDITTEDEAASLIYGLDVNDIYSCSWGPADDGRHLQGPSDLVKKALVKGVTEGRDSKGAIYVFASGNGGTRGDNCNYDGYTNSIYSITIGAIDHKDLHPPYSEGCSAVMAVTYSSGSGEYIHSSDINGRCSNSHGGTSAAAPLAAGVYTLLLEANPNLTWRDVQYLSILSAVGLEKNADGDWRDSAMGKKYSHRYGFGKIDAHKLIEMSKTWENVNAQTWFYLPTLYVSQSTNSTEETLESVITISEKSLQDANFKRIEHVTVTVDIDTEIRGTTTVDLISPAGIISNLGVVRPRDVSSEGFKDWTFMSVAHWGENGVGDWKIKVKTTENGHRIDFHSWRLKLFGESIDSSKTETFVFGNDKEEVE
Procedure: (§2) Affinities of eglin variants with secreted, soluble Kex2 (hereafter “Kex2”; Brenner, C. and Fuller, R. S. (1992) Proc. Natl. Acad. Sci. USA 89: 922-926) and secreted, soluble furin (hereafter, “furin”; Bravo, D. A. et al (1994) J. Biol. Chem. 269: 25830-25837; and Komiyama & Fuller (2000) Biochemistry 39: 15156-15165) were measured by incubating variants with the enzymes (˜0.5 to 2.0 nM) for 45 min to 1 h at 21° C. in one of two enzyme assay buffers. For Kex2, the buffer was 200 mM Bistris (pH 7.27) containing 1 mM CaCl₂ and 0.1% Triton X-100; and for furin, the buffer was 20 mM NaMES (pH 7.0) containing 1 mM CaCl₂ and 0.1% Triton X-100 for furin. 100 to 200 μL aliquots of reaction mixtures were transferred into triplicate wells of opaque 96 well plates (Costar), and residual enzyme activity was measured with an fmax fluorescence micro plate reader (Molecular Devices) by monitoring hydrolysis of a fluorogenic substrate Boc-Arg-Val-Arg-Arg-MCA. Data were graphically analyzed (KaleidaGraph) with an equation developed by Green and Work (1953). Site-directed mutagenesis at P2 and P6 of eglin c generated temporary inhibitors (Table 3) and exhausted possibility to improve affinity further with this approach.

secreted, soluble furin [3] = biological target: T1, secreted, soluble furin; assay: enzyme inhibition, purified variant
Procedure: as §2

secreted, soluble Kex2 [4] = biological target: T2, secreted, soluble Kex2; assay: enzyme inhibition, purified variant; remark: listed apart in the source
secreted, soluble furin [5] = biological target: T1, secreted, soluble furin; assay: enzyme inhibition, purified variant; remark: listed apart in the source
human PC7 [6] = biological target: T3, human PC7 (human, UniProt Q16549 142-667, limits assumed); assay: enzyme inhibition, purified variant
T3 sequence (looked up): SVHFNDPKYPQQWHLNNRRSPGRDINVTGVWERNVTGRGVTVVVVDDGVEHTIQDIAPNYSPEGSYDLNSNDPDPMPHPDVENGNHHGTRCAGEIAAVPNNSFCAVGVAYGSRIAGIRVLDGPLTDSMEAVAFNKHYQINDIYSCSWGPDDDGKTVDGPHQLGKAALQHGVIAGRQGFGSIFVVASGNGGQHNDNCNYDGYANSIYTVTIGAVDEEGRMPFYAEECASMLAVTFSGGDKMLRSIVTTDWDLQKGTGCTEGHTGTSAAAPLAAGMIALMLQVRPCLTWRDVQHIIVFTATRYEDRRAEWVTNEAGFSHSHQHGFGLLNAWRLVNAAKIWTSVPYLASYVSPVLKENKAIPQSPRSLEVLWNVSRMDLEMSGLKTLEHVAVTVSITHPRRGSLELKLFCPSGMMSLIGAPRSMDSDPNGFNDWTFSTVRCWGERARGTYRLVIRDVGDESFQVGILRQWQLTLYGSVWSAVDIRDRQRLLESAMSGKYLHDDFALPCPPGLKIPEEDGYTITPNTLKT

secreted, soluble Kex2 [7] = biological target: T2, secreted, soluble Kex2; assay: enzyme inhibition, purified variant; Kassoc
secreted, soluble furin [8] = biological target: T1, secreted, soluble furin; assay: enzyme inhibition, purified variant; Kassoc
human PC7 [9] = biological target: T3, human PC7; assay: enzyme inhibition, purified variant; Kassoc
secreted, soluble Kex2 [10] = biological target: T2, secreted, soluble Kex2; assay: enzyme inhibition, fluorogenic substrate; * temporary inhibition
Procedure: as §2

secreted, soluble furin [11] = biological target: T1, secreted, soluble furin; assay: as above
Procedure: as §2

secreted, soluble Kex2 [12] = biological target: T2, secreted, soluble Kex2; assay: equilibrium enzyme inhibition
Procedure: (§3) Thus, R1-eglin refers to substitution of Arg at position P1.
(§4) Affinities of eglin variants with secreted, soluble Kex2 (hereafter “Kex2”; Brenner, C. and Fuller, R. S. (1992) Proc. Natl. Acad. Sci. USA 89: 922-926) and secreted, soluble furin (hereafter, “furin”; Bravo, D. A. et al (1994) J. Biol. Chem. 269: 25830-25837; and Komiyama & Fuller (2000) Biochemistry 39: 15156-15165) were measured by incubating variants with the enzymes (˜0.5 to 2.0 nM) for 45 min to 1 h at 21° C. in one of two enzyme assay buffers. For Kex2, the buffer was 200 mM Bistris (pH 7.27) containing 1 mM CaCl₂ and 0.1% Triton X-100; and for furin, the buffer was 20 mM NaMES (pH 7.0) containing 1 mM CaCl₂ and 0.1% Triton X-100 for furin.

secreted, soluble furin [13] = biological target: T1, secreted, soluble furin; assay: equilibrium enzyme inhibition
Procedure: as §3, §4

secreted, soluble furin [14] = biological target: T1, secreted, soluble furin; assay: calculated from kon (progress curves) and Ka
Procedure: (§5) In some aspects of the present invention, biological application of the eglin c variants of the present invention as inhibitors of processing in vivo depends upon the rate of binding to target enzymes, where it is critical. Therefore, the rate of action of eglin variants with Kex2 and furin was examined by incubating 5×10⁻¹⁰ M enzyme with inhibitor at molar ratios of inhibitor to enzyme ranging from 10 to 80. […] The relationship between kobs and inhibitor concentration was linear. The values of kₒₙ were determined from the slope of such curves, and dissociation rate constants (koff) were calculated (koff=kₒₙ/Kₐ). For R4R1-eglin, koff was calculated to be 2×10⁻⁴s⁻¹ for Kex2, and 3×10⁻⁴s⁻¹ for furin. […] Similarly, the t_{1/2} of the complex of M4R1-eglin with Kex2 was estimated to be 3 h. For complex of R4K1-eglin with furin, koff was calculated to be 2×10⁻⁴s⁻¹ implying that the koff and t_{1/2} for this complex are similar to those for the complex of R4R1-eglin with furin.

secreted, soluble Kex2 [15] = biological target: T2, secreted, soluble Kex2; assay: equilibrium enzyme inhibition, fluorogenic substrate
Procedure: as §2

secreted, soluble furin [16] = biological target: T1, secreted, soluble furin; assay: as above
Procedure: as §2

subtilisin Carlsberg = biological target: T4, subtilisin Carlsberg (UniProt P00780 106-379); assay: enzyme inhibition
T4 sequence (looked up): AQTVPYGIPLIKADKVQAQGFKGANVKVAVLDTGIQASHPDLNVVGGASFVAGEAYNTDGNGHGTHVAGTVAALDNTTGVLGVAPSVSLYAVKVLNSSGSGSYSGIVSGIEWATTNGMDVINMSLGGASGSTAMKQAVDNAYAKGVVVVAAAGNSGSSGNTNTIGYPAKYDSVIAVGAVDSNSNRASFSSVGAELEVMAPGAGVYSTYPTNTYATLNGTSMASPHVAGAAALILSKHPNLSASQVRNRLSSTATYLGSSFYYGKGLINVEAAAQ

secreted, soluble Kex2 [17] = biological target: T2, secreted, soluble Kex2; assay: estimated from koff
Procedure: as §5

trypsin = assay: enzyme inhibition; temporary inhibitor of trypsin
trypsin, sequence (P00760 24-246): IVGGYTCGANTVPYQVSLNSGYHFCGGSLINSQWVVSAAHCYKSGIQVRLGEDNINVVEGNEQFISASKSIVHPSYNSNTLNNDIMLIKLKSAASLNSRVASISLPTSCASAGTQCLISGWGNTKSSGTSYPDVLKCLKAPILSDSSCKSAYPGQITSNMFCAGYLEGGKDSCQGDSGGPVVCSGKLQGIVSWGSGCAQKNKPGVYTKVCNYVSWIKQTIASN

secreted, soluble Kex2 [18] = biological target: T2, secreted, soluble Kex2; assay: rapid inhibition assay; listed as potent inhibitor of Kex2
secreted, soluble furin [19] = biological target: T1, secreted, soluble furin; assay: rapid furin inhibition assay; table lists substitutions with equal or enhanced inhibition of furin relative to the template
Procedure: 3. Rapid screening of libraries. Libraries were introduced into E. coli BL21 (DE3) cells and individual, cloned transformants were grown by shaking at 37° C. in 200 μl LB containing […] kanamycin in 96-well, 0.45 μm GHP membrane filter plates (Gelman) (FIG. 2). When O.D. 600 values reached 0.4, 60 μl of culture were transferred to secondary 96-well plates (Falcon), adjusted to 10% glycerol, and stored at −80° C. These frozen stocks served as master copies of the libraries. IPTG was added to the cultures to a final concentration of 1 mM, and the cultures were allowed to express eglin c variants for one hour in the filter plate. Expressed eglin c variants were extracted from the cells with 50 mM Tris-HCl pH 8.0 containing 2 mM EDTA following freezing and thawing. These extracts were collected as filtrates by centrifugation of the filter plate above a second plate. The filtrates, representing partially purified eglin c variants, were analyzed using a rapid fluorescence-based assay for processing enzyme inhibition as described below in Section 5. […] Frozen cells were cultured in 50 to 100 ml culture volumes, and DNA maxipreps were performed; the DNA preparations were then sequenced by automated DNA sequencing. Selected variants were expressed and purified on a larger scale, and affinities for furin or Kex2 were examined quantitatively (see below).
as §1

T1 sequence (P09958 108-715 limits assumed): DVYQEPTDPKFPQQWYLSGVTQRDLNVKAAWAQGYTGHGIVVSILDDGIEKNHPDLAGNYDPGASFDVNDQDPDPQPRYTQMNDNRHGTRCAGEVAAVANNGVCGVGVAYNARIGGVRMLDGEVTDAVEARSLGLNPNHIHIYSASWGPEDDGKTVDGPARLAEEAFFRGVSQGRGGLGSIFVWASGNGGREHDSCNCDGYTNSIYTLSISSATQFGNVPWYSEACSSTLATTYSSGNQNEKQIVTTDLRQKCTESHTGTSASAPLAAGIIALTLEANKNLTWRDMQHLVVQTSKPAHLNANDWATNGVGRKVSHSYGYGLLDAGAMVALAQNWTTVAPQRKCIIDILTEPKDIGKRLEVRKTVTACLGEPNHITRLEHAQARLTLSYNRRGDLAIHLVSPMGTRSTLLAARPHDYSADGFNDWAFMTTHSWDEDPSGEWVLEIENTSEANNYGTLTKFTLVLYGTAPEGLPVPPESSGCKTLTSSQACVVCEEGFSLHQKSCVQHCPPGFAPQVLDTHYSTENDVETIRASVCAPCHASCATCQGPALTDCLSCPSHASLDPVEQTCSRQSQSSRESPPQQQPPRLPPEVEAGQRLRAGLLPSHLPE

binding result (secreted, soluble furin [1]): binds
B1: Gly49-R4R1-eglin (Tyr49 to Gly) (designed binder)
chain: SMGSELKSFPEVVGKTVDQAREYFTLHYPQYDVYFLPEGSRVTRDLRGNRVRVFYNPGTNVVNHVPHVG
notes: tested as partially purified extract

Ki (secreted, soluble Kex2 [2]): 0.045 nM | Ki ratio (to R4R1- template) (secreted, soluble Kex2 [2]): 0.05 | fold enhanced affinity (relative to R4R1-eglin) (secreted, soluble Kex2 [2]): 16 fold | Ki (secreted, soluble furin [3]): 0.33 nM | Ki ratio (to R4R1- template) (secreted, soluble furin [3]): 0.132 | fold enhanced affinity (relative to R4R1-eglin) (secreted, soluble furin [3]): 10 fold | Ki (secreted, soluble Kex2 [4]): 0.056 nM | Ki (secreted, soluble furin [5]): 0.3 nM | Ki (human PC7 [6]): 1.8 nM | Ka (secreted, soluble Kex2 [7]): 1.8e+10 M⁻¹ | Ka (secreted, soluble furin [8]): 3e+09 M⁻¹ | Ka (human PC7 [9]): 5.6e+08 M⁻¹
B2: Tyr49Asp-R4R1-eglin (designed binder)
chain: B1 chain with G48D
notes: R4R1 template; N-terminal Met removed; also called Asp49-R4R1-eglin; Asp49-R4R1-

Ki (secreted, soluble Kex2 [10]): 0.67 nM | Ki (secreted, soluble furin [11]): 100 nM
B3: K2R1-eglin (designed binder)
chain: B1 chain with R41P, T43K, G48Y
notes: N-terminal Met removed

fold decrease of Ka relative to R4R1-eglin (secreted, soluble Kex2 [12]): 2.8 fold | fold higher affinity for Kex2 than for furin (secreted, soluble Kex2 [12]): ~20 fold | fold reduction of Ka relative to R4R1-eglin (secreted, soluble furin [13]): 15.4 fold | Ki (secreted, soluble Kex2 [2]): 2.5 nM | Ki ratio (to R4K1- template) (secreted, soluble Kex2 [2]): 1 | Ki (secreted, soluble furin [3]): 38 nM | Ki ratio (to R4K1- template) (secreted, soluble furin [3]): 1 | koff (secreted, soluble furin [14]): 0.0002 s⁻¹ | Ki (secreted, soluble Kex2 [15]): 2.5 nM | Ki (secreted, soluble furin [16]): 38 nM
B4: R4K1-eglin (designed binder)
chain: B1 chain with R44K, G48Y
notes: N-terminal Met removed; also called R4K1-template

Ki (secreted, soluble Kex2 [10]): 0.59 nM | Ki (secreted, soluble furin [11]): 83 nM
B5: M4K2R1-eglin (designed binder)
chain: B1 chain with R41M, T43K, G48Y
notes: N-terminal Met removed

Ka (subtilisin Carlsberg): 6.6e+10 M⁻¹ | half-life (t1/2) of the complex (secreted, soluble Kex2 [17]): 3 h | fold higher affinity of Kex2 than of furin (secreted, soluble Kex2 [12]): ~10000 fold | fold increase in Ka relative to R1-eglin (secreted, soluble Kex2 [12]): 88 fold | fold increase in affinity relative to L1-eglin (secreted, soluble Kex2 [12]): 1.5e+06 fold | fold increase in affinity relative to L1-eglin (secreted, soluble furin [13]): 33 fold | fold increase in affinity relative to R1-eglin (secreted, soluble furin [13]): 15 fold | Ka (trypsin): 4.4e+10 M⁻¹ | Ki (secreted, soluble Kex2 [15]): 0.34 nM | Ki (secreted, soluble furin [16]): 3600 nM
B6: M4R1-eglin (designed binder)
chain: B1 chain with R41M, G48Y
notes: N-terminal Met removed

Ki (secreted, soluble Kex2 [10]): ~0.5 nM | Ki (secreted, soluble furin [11]): ~0.5 nM
B7: R4K2R1-eglin (designed binder)
chain: B1 chain with T43K, G48Y
notes: N-terminal Met removed

binding result (secreted, soluble Kex2 [18]): binds | binding result (secreted, soluble furin [19]): binds
B8: Tyr49Cys-R4R1-eglin (designed binder)
chain: B1 chain with G48C
notes: N-terminal Met removed; also called the Cys variant

binding result (secreted, soluble Kex2 [18]): binds
B9: Val49-R4R1-eglin (Tyr49 to Val) (designed binder)
chain: B1 chain with G48V
notes: as for B1

Ki (secreted, soluble Kex2 [15]): 0.29 nM | Ki (secreted, soluble furin [11]): 2 nM
B10: R6R4R1-eglin (designed binder)
chain: B1 chain with G39R, G48Y
notes: N-terminal Met removed; also called Gly40 Arg on R4R1-template
